Experimental data reported in patent US20200199241A1 (Chugai, published 2020).
Where a chain is given by its changes, count along the chain named. Names may count otherwise. Read-outs that look alike come from different tables or passages of the source.

Experiments:
[1] = target: T1, human FcRn (soluble human FcRn complexed with β2-microglobulin) (human, UniProt P61769 21-119, limits assumed); test: SPR, antibody captured by Protein L, human FcRn as analyte, pH 7.0, 25 C
T1 construct: also called hFcRn
T1 sequence (chain, as listed by the source limits assumed, chain 1 of 2): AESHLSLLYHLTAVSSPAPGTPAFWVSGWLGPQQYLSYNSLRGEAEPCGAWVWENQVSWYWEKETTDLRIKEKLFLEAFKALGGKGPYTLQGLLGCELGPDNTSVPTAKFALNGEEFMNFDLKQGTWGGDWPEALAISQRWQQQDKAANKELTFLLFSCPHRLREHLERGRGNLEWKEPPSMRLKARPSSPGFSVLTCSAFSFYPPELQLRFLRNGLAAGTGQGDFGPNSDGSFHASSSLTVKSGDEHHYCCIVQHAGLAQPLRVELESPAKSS
T1 sequence (P61769 21-119 limits assumed, chain 2 of 2): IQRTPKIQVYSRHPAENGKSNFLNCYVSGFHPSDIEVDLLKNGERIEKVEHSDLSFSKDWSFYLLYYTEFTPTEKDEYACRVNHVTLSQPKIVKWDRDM

[2] = target: T2, mouse FcγRI (mouse, UniProt P26151 25-297); test: SPR, antibody captured by Protein L, mouse FcγR as analyte, pH 7.4, 25 C
T2 construct: bought; also called mFcgRI; mFcgR 1
T2 sequence (looked up): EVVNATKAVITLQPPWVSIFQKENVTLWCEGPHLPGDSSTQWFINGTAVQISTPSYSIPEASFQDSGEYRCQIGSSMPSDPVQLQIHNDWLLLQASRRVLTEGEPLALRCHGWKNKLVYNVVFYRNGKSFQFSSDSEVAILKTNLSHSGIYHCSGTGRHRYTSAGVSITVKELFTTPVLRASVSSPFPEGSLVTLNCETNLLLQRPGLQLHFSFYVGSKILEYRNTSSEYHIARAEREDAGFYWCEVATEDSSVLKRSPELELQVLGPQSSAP

[3] = target: T3, mouse FcγRIIb (mouse, UniProt P08101 30-207, limits assumed); test: as above
T3 construct: bought; also called mFcgRIIb; mFcgR IIb
T3 sequence (looked up): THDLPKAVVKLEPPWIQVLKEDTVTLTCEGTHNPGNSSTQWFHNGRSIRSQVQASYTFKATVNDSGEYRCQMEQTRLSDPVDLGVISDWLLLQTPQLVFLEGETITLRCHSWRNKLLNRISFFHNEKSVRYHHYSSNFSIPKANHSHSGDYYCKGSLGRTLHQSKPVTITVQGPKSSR

[4] = target: T4, mouse FcγRIII (mouse, UniProt P08508 31-215); test: as above
T4 construct: bought; also called mFcgRIII; mFcgR III
T4 sequence (looked up): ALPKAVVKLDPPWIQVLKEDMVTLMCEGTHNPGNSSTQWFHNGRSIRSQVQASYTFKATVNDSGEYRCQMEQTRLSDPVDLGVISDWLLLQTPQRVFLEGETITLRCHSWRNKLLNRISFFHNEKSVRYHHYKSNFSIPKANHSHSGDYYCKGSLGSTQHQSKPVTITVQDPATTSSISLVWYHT

[5] = target: T5, mouse FcγRIV (mouse, UniProt A0A0B4J1G0 21-203); test: as above
T5 construct: bought; also called mFcgRIV; mFcgR IV; the vendor's purification tag not given
T5 sequence: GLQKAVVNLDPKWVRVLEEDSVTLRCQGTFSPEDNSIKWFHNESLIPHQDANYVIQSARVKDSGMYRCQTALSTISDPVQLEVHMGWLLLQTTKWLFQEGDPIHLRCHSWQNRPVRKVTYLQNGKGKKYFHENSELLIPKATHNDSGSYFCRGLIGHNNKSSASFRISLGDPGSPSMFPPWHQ

[6] = target: T1, human FcRn (soluble human FcRn …); test: SPR, antibody captured by Protein L, human FcRn as analyte, pH 7.0, 25 C; remark: listed apart in the source
[7] = target: T2, mouse FcγRI; test: SPR, antibody captured by Protein L, mouse FcγR as analyte, pH 7.4, 25 C; design: unit not given here
[8] = target: T3, mouse FcγRIIb; test: as above; design: unit not given here
[9] = target: T4, mouse FcγRIII; test: as above; design: unit not given here
[10] = target: T5, mouse FcγRIV; test: as above; design: unit not given here
[11] = target: T1, human FcRn (soluble human FcRn …); test: SPR, antibody captured by Protein L, human FcRn as analyte, pH 7.0, 25 C; remark: listed apart in the source
[12] = target: T6, human FcγRIIb (human, UniProt P31994 43-217, limits assumed); test: SPR, antibody captured by Protein L, human FcγR as analyte, pH 7.4, 25 C;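 further: biacore T100 or T200 with Protein L amine-coupled on a CM4 chip, FcγRs diluted in ACES saline with polysorbate 20, buffer-only injection as blank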
T6 construct: also called hFcgRIIb; FcγIIB
T6 sequence: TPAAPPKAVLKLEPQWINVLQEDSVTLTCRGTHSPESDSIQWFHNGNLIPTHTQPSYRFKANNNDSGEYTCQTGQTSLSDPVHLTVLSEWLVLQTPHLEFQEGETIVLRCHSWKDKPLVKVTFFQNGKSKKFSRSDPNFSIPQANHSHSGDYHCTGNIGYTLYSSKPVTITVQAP

[13] = target: T7, human FcγRIIIa(V) (human, UniProt P08637 17-208, limits assumed); test: as above
T7 construct: also called hFcgRIIIa(V); allotype V158
T7 sequence (P08637 other isoform, or with tags, fused parts or gaps limits assumed): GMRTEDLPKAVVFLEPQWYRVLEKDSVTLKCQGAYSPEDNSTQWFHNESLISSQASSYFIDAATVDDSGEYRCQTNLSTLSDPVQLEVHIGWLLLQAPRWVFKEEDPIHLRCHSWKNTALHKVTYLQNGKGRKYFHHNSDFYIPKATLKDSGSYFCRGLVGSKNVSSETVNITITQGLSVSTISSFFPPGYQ

[14] = target: T8, human FcγRIa (human, UniProt P12314 16-292, limits assumed); test: as above
T8 construct: also called hFcgRIa; hFcgRI
T8 sequence (P12314 16-292 limits assumed): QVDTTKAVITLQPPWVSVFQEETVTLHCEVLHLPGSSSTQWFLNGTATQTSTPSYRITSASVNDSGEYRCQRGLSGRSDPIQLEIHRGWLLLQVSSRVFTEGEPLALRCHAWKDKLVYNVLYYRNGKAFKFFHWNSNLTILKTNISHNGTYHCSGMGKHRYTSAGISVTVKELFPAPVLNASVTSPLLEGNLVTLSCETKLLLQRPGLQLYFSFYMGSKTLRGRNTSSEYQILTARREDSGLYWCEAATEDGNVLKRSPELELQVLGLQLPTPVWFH

[15] = target: T9, human FcγRIIa(R) (human, UniProt P12318 36-217); test: as above
T9 construct: also called hFcgRIIa(R); FcγRIIa type R
T9 chain: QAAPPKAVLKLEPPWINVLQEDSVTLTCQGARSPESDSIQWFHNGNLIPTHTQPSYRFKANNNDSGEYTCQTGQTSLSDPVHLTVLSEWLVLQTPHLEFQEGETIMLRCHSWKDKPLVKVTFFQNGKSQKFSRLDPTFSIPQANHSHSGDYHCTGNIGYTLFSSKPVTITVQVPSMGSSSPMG

[16] = target: T10, human FcγRIIa(H) (human, UniProt P12318 36-217); test: as above
T10 construct: also called hFcgRIIa(H); FcγRIIa type H
T10 sequence: T9 chain with R133H

B1: antibody with VH3-IgG1-F947 heavy chain and L(WT)-CK light chain (antibody)
heavy: QVQLQESGPGLVKPSETLSLTCAVSGHSISHDHAWSWVRQPPGEGLEWIGFISYSGITNYNPSLQGRVTISRDNSKNTLYLQMNSLRAEDTAVYYCARSLARTTAMDYWGEGTLVTVSSASTKGPSVFPLAPSSKSTSGGTAALGCLVKDYFPEPVTVSWNSGALTSGVHTFPAVLQSSGLYSLSSVVTVPSSSLGTQTYICNVNHKPSNTKVDKKVEPKSCDKTHTCPPCPAPELLGGPSVFLFPPKPKDVLYISRTPEVTCVVVDVSHEDPEVKFNWYVDGVEVHNAKTKPREEQYNSTYRVVSVLQPLHADWLNGKEYKCKVSNKALPAPIEKTISKAKGQPREPQVYTLPPSRDELTKNQVSLTCLVKGFYPSDIAVEWESNGQPENNYKTTPPVLDSDGSFFLYSKLTVDKSRWQQGNVFSCSVMHEALHYHVTQKSLSLSP
light: not shown
notes: T250V/M252Y/T307Q/V308P/Q311A/N434Y/Y436V; copies: 2 + 2
Kd [1]: 11 nM | BINDING AMOUNT (RU) [2]: 299 RU | BINDING AMOUNT (RU) [3]: 117 RU | BINDING AMOUNT (RU) [4]: 382 RU | BINDING AMOUNT (RU) [5]: 242 RU | Kd [6]: 11 nM | binding amount [7]: 329 | binding amount [8]: 129 | binding amount [9]: 664 | binding amount [10]: 279 | Kd [11]: 11 nM | BINDING AMOUNT (RU) [12]: 70.6 RU | BINDING AMOUNT (RU) [13]: 221 RU | BINDING AMOUNT (RU) [14]: 368 RU | BINDING AMOUNT (RU) [15]: 148 RU | BINDING AMOUNT (RU) [16]: 154 RU
